This is an account of results in patent publication US20110212094A1 (AbbVie / Abbott, published 2011).

In assay [1] the target is T1, Recombinant Human β-NGF (human, UniProt P01138 122-239, limits assumed).
T1 construct: Bought reagent used in the Biacore analyses
Kind of assay: Biacore SPR. The procedure: The BIACORE assay (Biacore, Inc, Piscataway, N.J.) determines the affinity of antibodies or DVD-Ig with kinetic measurements of on-rate and off-rate constants. Binding of antibodies or DVD-Ig to a target antigen (for example, a purified recombinant target antigen) is determined by surface plasmon resonance-based measurements with a Biacore® 1000 or 3000 instrument (Biacore® AB, Uppsala, Sweden) using running HBS-EP (10 mM HEPES [pH 7.4], 150 mM NaCl, 3 mM EDTA, and 0.005% surfactant P20) at 25° C. All chemicals are obtained from Biacore® AB (Uppsala, Sweden) or otherwise from a different source as described in the text. For example, approximately 5000 RU of goat anti-mouse IgG, (Fcγ), fragment specific polyclonal antibody (Pierce Biotechnology Inc, Rockford, Ill.) diluted in 10 mM sodium acetate (pH 4.5) is directly immobilized across a CM5 research grade biosensor chip using a standard amine coupling kit according to manufacturer's instructions and procedures at 25 μg/ml. Unreacted moieties on the biosensor surface are blocked with ethanolamine. Modified carboxymethyl dextran surface in flowcell 2 and 4 is used as a reaction surface. Unmodified carboxymethyl dextran without goat anti-mouse IgG in flow cell 1 and 3 is used as the reference surface. For kinetic analysis, rate equations derived from the 1:1 Langmuir binding model are fitted simultaneously to association and dissociation phases of all eight injections (using global fit analysis) with the use of Biaevaluation 4.0.1 software. Purified antibodies or DVD-Ig are diluted in HEPES-buffered saline for capture across goat anti-mouse IgG specific reaction surfaces. Antibodies or DVD-Ig to be captured as a ligand (25 μg/ml) are injected over reaction matrices at a flow rate of 5 μl/min. The association and dissociation rate constants, kₘ (M⁻¹s⁻¹) and koff (s⁻¹) are determined under a continuous flow rate of 25 μl/min. Rate constants are derived by making kinetic binding measurements at different antigen concentrations ranging from 10-200 nM. The equilibrium dissociation constant (M) of the reaction between antibodies or DVD-Igs and the target antigen is then calculated from the kinetic rate constants by the following formula: KD=koff/kₒₙ. Binding is recorded as a function of time and kinetic rate constants are calculated.

In assay [2] the target is NGF (Neuroscreen-1 bioassay). Kind of assay: cell-based or functional assay.
Assay [3] concerns the target T1, Recombinant Human β-NGF. Kind of assay: Biacore SPR; 25 C, HBS-EP pH 7.4; antibody captured on the chip, antigen 10-200 nM in flow. As for the experimental part:
The BIACORE assay (Biacore, Inc, Piscataway, N.J.) determines the affinity of antibodies or DVD-Ig with kinetic measurements of on-rate and off-rate constants. Binding of antibodies or DVD-Ig to a target antigen (for example, a purified recombinant target antigen) is determined by surface plasmon resonance-based measurements with a Biacore® 1000 or 3000 instrument (Biacore® AB, Uppsala, Sweden) using running HBS-EP (10 mM HEPES [pH 7.4], 150 mM NaCl, 3 mM EDTA, and 0.005% surfactant P20) at 25° C. All chemicals are obtained from Biacore® AB (Uppsala, Sweden) or otherwise from a different source as described in the text. […] The association and dissociation rate constants, kₘ (M⁻¹s⁻¹) and koff (s⁻¹) are determined under a continuous flow rate of 25 μl/min. […] The equilibrium dissociation constant (M) of the reaction between antibodies or DVD-Igs and the target antigen is then calculated from the kinetic rate constants by the following formula: KD=koff/kₒₙ. Binding is recorded as a function of time and kinetic rate constants are calculated.

T1 sequence (P01138 122-239 limits assumed): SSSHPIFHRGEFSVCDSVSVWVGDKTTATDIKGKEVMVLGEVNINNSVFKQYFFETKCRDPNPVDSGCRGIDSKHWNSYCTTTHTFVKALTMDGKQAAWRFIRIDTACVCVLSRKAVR

B1: AB020 (antibody, V domains shown)
VH: QVQLQESGPGLVKPSETLSLTCTVSGFSLIGYDLNWIRQPPGKGLEWIGIIWGDGTTDYNSAVKSRVTISKDTSKNQFSLKLSSVTAADTAVYYCARGGYWYATSYYFDYWGQGTLVTVSS
VL: DIQMTQSPSSLSASVGDRVTITCRASQSISNNLNWYQQKPGKAPKLLIYYTSRFHSGVPSRFSGSGSGTDFTFTISSLQPEDIATYYCQQEHTLPYTFGQGTKLEIKR
notes: Parent anti-NGF antibody; also called NGF; AB020VH
As for B1, in the assay with Recombinant Human β-NGF [1], the koff came to 4.08e-06 s⁻¹ and the kon was 606000 M⁻¹ s⁻¹. Moreover, the “NGF Inhibition Assay EC50 pM (ERK1/2 phosphorylation, Neuroscreen-1 cells)” value in assay [2] worked out at 53 pM. Besides, the Kd with Recombinant Human β-NGF [3] is 6.73 pM.
